Two molecules from patent US20210180049A1 (CHUGAI SEIYAKU KABUSHIKI KAISHA, priority 2013, published 2021) can be followed below.

Data set [1] can be described thus: SPR (Biacore T200) binding of D12 to ADP. Particulars: Biacore T200, 15° C., 500 mM NaCl. As for the experimental part: (§1) Sensor chip CM5 or CM4 (GE Healthcare) was immobilized with an appropriate amount of protein A (Life technologies) by amine coupling. The antibody of interest was captured by the chip to allow interaction with ATP (Wako), adenosine (Wako), or ADP (adenosine diphosphate) (Wako) as an antigen. The running buffer used was 50 mM Tris-HCl (Takara, T903), 500 mM NaCl, 0.01% (w/v) Tween20. The antigen was allowed to interact for 30 seconds at a flow rate of 30 μl/min, and was dissociated for 30 seconds. The interaction with the antigen was assessed at 15° C. The antigen was diluted using the same running buffer.
(§2) The dissociation constant KD (M) was calculated based on the association rate constant ka (1/Ms) and dissociation rate constant kd (l/s), both of which are kinetic parameters calculated from the sensorgram obtained by the measurement. Alternatively, the dissociation constant KD (M) was calculated using steady state analysis. Each parameter was calculated using the Biacore T200 Evaluation Software (GE Healthcare).

Data set [2] is described as follows: SPR (Biacore T200) binding of D12 and ATNLSA1-4_D12 variants to ATP. Particulars: Biacore T200, 15° C., 500 mM NaCl. The protocol:
as §1, §2
Based on the assay result, the affinity of each variant for ATP was calculated as a KD value. […]
It was determined that amino acids substituted at the sites could be included in a library (flexible residues to be introduced into a library).

Data set [3] in a line: phage ELISA for binding to ATP-PEG-biotin. As for the experimental part:
(§3) Next, for the purpose of confirming to which antigen of 2′-adenosine-PEG-biotin, 5′-adenosine-PEG-biotin, and ATP-PEG-biotin these clones have binding ability, the purified phages diluted with TBS were subjected to ELISA by the following procedure. A StreptaWell 96 microtiter plate (Roche) was coated at room temperature for one hour with 100 μl of TBS containing a biotin-labeled antigen (2′-adenosine-PEG-biotin, 5′-adenosine-PEG-biotin, or ATP-PEG-biotin). After the antigens were removed by washing each well of the plate with TBST, the wells were blocked with 250 μl of 2% skim milk/TBS for one hour or more. 2% skim milk/TBS was removed, and then the prepared, purified phages were added to each well. The plate was allowed to stand at room temperature for one hour to allow binding of antibody-displaying phages to antigens in each well. After TBST wash, a HRP-conjugated anti-M13 antibody (Amersham Pharmacia Biotech) diluted with TBS was added to each well. The plate was incubated for one hour. Following TBST wash, the TMB single solution (ZYMED) was added to each well. The chromogenic reaction in the solution of each well was terminated by adding sulfuric acid. Then, the developed color was assessed by measuring absorbance at 450 nm.

Data set [4] is described as follows: SPR (Biacore T200) binding of D12 and variants to adenosine. Particulars: Biacore T200, 15° C., corrected with 20 μmo1/1 ADP, Formula 2. The protocol: as §1, §2
To calculate the KD for adenosine, the binding response was assessed at various concentrations of adenosine in the presence or absence of 20 μmo1/1 ADP. In addition, the binding response was separately assessed in the presence of 20 μmo1/1 ADP. […]

Data set [5] can be described thus: competitive phage ELISA with ATP. The format is binding. Particulars: ATP from equal amount up to 10000 times that of the antigen. As for the experimental part:
ATNLSA1-4_D12 and PF1 were each diluted with TBS and subjected to ELISA by the following procedure.
A StreptaWell 96 microtiter plate (Roche) was coated at room temperature for one hour with 100 μl of TBS containing biotin-labeled antigens (a mixture of 5′-adenosine-PEG-biotin and ATP-PEG-biotin). After the antigens were removed by washing each well of the plate with TBST, the wells were blocked with 250 μl of 2% skim milk/TBS for one hour or more. 2% skim milk/TBS was removed, and then the prepared, purified phages were added to each well. The plate was allowed to stand at room temperature for one hour to allow binding of the antibody-displaying phages to the antigens in each well. […] For the competition of the immobilized antigen with ATP, the plate was allowed to stand at room temperature for one hour. Then, after TBST wash, an HRP-conjugated anti-M13 antibody (Amersham Pharmacia Biotech) diluted with TBS was added to each well. The plate was incubated for one hour. Following TBST wash, the TMB single solution (ZYMED) was added to each well. The chromogenic reaction in the solution of each well was terminated by adding sulfuric acid. Then, the developed color was assessed by measuring absorbance at 450 nm.

Data set [6] can be described thus: phage ELISA for binding to 5′-adenosine-PEG-biotin. The protocol: as §3
Data set [7] is described as follows: SPR binding of SMB0002 to AMP. The note with it: Biacore; read-out: KD of SMB0002 toward AMP. The protocol: Binding of SMB0002 was assessed at AMP concentrations of 500, 250 (duplicate), 125, 62.5, 31.25, 15.625, and 7.8125 μM.
Data set [8] in a line: SPR (Biacore T200) binding of SMB0002 to ATP. Particulars: Biacore T200, 25° C., antibody captured on protein A/G; read-out: KD of SMB0002 toward ATP. As for the experimental part: Biacore T200 (GE Healthcare) was used to analyze interaction in the antigen-antibody reaction with ATP. The antibody of interest was captured onto protein A/G (Invitrogen) immobilized in an appropriate amount onto Sensor chip CM5 (GE Healthcare) by the amine coupling method, and ATP which is the antigen was allowed to interact. The running buffer used was 10 mmol/L ACES, 150 mmol/L NaCl, 0.05% (w/v) Tween 20, pH 7.4. All measurements were carried out at 25° C. The antigen was diluted with running buffer.
(§4) Then, running buffer was run at a flow rate of 20 μL/min for three minutes and dissociation of the antigen from the antibody was observed. Next, 10 mmol/L glycine-HCl, pH 1.5, was injected at a flow rate of 30 μL/min for 30 seconds to regenerate the sensor chip. Kinetic parameters such as the association rate constant ka (1/Ms) and the dissociation rate constant kd (l/s) were calculated based on the sensorgrams obtained by the measurements. The dissociation constant KD (M) was calculated from these constants. Each parameter was calculated using the Biacore T200 Evaluation Software (GE Healthcare).

Data set [9] in a line: SPR (Biacore T200) binding of SMB0002 to adenosine. Particulars: Biacore T200, 25° C., antibody captured on protein A; read-out: KD of SMB0002 toward adenosine. The protocol: Using Biacore T200 (GE Healthcare), the antibody SMB0002 obtained by the B cell cloning method was analyzed for its interaction with adenosine in antigen-antibody reaction. Sensor chip CM5 (GE Healthcare) was immobilized with an appropriate amount of protein A (Invitrogen) by amine coupling. Antibodies of interest were captured by the chip to allow interaction to adenosine as an antigen. The running buffer used was 50 mmol/1 TrisHCl, 150 mmol/1 NaCl, 0.02% (w/v) Tween20, pH 7.6. All measurements were carried out at 25° C. The antigens were diluted using the running buffer.
as §4, with “of 30” for “of 20”, “for four” for “for three”, “was loaded” for “was injected”

Data set [10] in a line: SPR binding of SMB0002 to ADP. Particulars: Biacore, NaCl concentration 600 mM; read-out: KD of SMB0002 toward ADP. The protocol:
Binding to ADP was assessed by a method similar to the measurement method using Biacore described in Example 3-2, except that the NaCl concentration was changed to 600 mM. Binding of SMB0002 was assessed at ADP concentrations of 2000, 1000 (duplicate), 500, 250, 250, 125, 62.5, and 31.3 μM.

Data set [11] can be described thus: competitive ELISA of 2′-Adenosine-PEG-Biotin-binding clones with adenosine and ATP. The note with it: 50 nM 2′-Adenosine-PEG-Biotin with 500 μM adenosine or ATP; absorbance at 405 nm. As for the experimental part: To immobilize the antibodies, the plate was allowed to stand for one hour or more at room temperature. After the antibodies diluted with PBS were removed from each well, TBS containing 1% BSA was added thereto and the plate was allowed to stand for one hour or more. Then, the TBS (pH 7.4) containing 1% BSA was removed from the plate. 2′-Adenosine-PEG-Biotin diluted to 50 nM with PBS, a mixture of 2′-Adenosine-PEG-Biotin and adenosine diluted to 50 nM and 500 μM respectively with PBS, a mixture of 2′-Adenosine-PEG-Biotin and ATP diluted to 50 nM and 500 μM respectively with PBS, or PBS alone was added to the plate. The plate was allowed to stand at room temperature for one hour, and then washed three times with 80 μl of PBS containing 0.05% Tween-20. Then, Streptavidin-HRP (Thermo fisher scientific) diluted 20000 times with PBS was added to each well, and the plate was allowed to stand for one hour or more at room temperature. After the plate was washed three times with 80 μl of PBS containing 0.05% Tween-20, a chromogenic substrate (ABTS peroxidase substrate) was added to each well. After the plate was incubated for one hour, color development in the solution of each well was assessed by measuring absorbance at 405 nm using SpectraMax from Molecular Device.

Procedure for Tm measurement by DSC: Measurement by DSC was carried out by a method known to those skilled in the art.
DSC measurement was carried out by a method known to those skilled in the art.

B1: ATNLSA1-4_D12: ATP/adenosine-binding antibody; heavy-chain variable region SEQ ID NO: 48, light-chain variable region SEQ ID NO: 49 (antibody, listed as Homo sapiens, V domains shown)
VH: QVQLQESGGDLVKPGGFLRLSCAASGFTFNTYTMNWVRQAPGKGLEWLSSISSRSNYINYADSVKGRFTISRDNAKNSLYLQMNSLRAEDTAVYYCARFGRKGDLNWVFDYWGQGTLVTVSS
VL: QSALTQPPSASGSPGQTVTISCTGTSSDVGGYNYVSWYQQHPGKAPKLMIYEVSKRPSGVPDRFSGSKSGNTASLTVSGLQAEDEADYFCSSYAGSNNVVFGGGTKLTVL
With B1, the Kd in [1] came to 0.25 µM; in [2], 8.5 µM; in data set [4], 1100 µM. Moreover, the “binding to ATP-PEG-biotin” value in data set [3] was “ability to bind”. Besides, the Tm in the data set “Tm measurement by DSC” was found to be 74.37 °C. Besides, the “binding to biotin-labeled antigen with ATP as competitor” value in data set [5] is “inhibited in an ATP concentration-dependent manner”. The “binding to 5′-Adenosine-PEG-biotin” value in [6] is listed as “ability to bind”.

B2: SMB0002: rabbit B cell cloning antibody binding adenosine and ATP; heavy chain SEQ ID NO: 30, light chain SEQ ID NO: 31 (antibody, listed as Oryctolagus cuniculus)
heavy: CQSVEESGGRLVTPGTPLTLTCTVSGIDLSNYAMGWVRQAPGKGLEWIGIIGADSSTWYPSWVKGRFTISKTSTTVDLKMTSLTTEDTATYFCARGRFVGYTNAFDPWGPGTLVTVSS
light: AQVLTQTPSSVSAAVGGTVTISCQSSQSVWNNNYLSWYQQKPGQPPKLLIFDASTLASGVPSRFSGRGSGTQFTLTISGVQCEDAATYYCHGSYANSGWYDNAFGGGTEVVVK
As to B2, the Kd is 59 µM in data set [7], 10 µM in data set [8], 0.015 µM in data set [9] and 240 µM in data set [10]. Besides, the “binding to 2′-Adenosine-PEG-Biotin on adding excess amounts of adenosine and ATP” value in data set [11] is recorded as “inhibited”.
